{"source": "paper PMC10336096", "key": {"[1]": {"target": "wild-type CXCL8^1–72 (human)", "test": "native MS; nanoESI-MS under non-denaturing conditions, 200 mM ammonium acetate; 5‒20 μM protein (methods; 2–7 μM in the results for the wild type); monomer to dimer"}, "[2]": {"target": "CXC chemokine receptor 1 (CXCR1) (human) (UniProt P25024)", "sequence (P25024 whole entry)": "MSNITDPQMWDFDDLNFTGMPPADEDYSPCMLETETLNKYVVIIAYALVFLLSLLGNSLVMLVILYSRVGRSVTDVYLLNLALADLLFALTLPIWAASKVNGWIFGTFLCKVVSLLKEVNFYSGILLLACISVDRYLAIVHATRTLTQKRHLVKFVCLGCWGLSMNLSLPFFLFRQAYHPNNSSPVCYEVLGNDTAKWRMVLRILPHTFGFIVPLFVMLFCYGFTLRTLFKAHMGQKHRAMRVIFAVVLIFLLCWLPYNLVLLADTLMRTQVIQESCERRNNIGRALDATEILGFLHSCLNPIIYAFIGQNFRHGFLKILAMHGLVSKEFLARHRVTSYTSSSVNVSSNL"}, "[3]": {"target": "trapped dimer (CXCL8^R26C) (human)", "test": "native MS; nanoESI-MS under non-denaturing conditions, 200 mM ammonium acetate; 5‒20 μM protein (methods; 2–7 μM in the results for the wild type); monomer to dimer"}}, "data": [{"substance": "wild-type CXCL8^1–72 (ligand)", "values": [{"measurement": "stoichiometry N", "setting": "[1]", "value": 2}]}, {"substance": "trapped dimer (CXCL8^R26C) (ligand)", "values": [{"measurement": "NanoBiT Gi1 dissociation assay in HEK293A cells; fold higher concentration needed than the trapped monomer (CXCL8^1–65) to elicit a response from CXCR1", "setting": "[2]", "value": 32, "unit": "fold"}, {"measurement": "NanoBiT Gi1 dissociation assay in HEK293A cells; fold higher concentration needed than the wild-type CXCL8 to elicit a response from CXCR1", "setting": "[2]", "value": 85, "unit": "fold"}, {"measurement": "stoichiometry N", "setting": "[3]", "value": 2}]}]}
